# The supplement of paper PMC7877785
# ± gives the uncertainty stated by the source.
# Assay: self-splicing fitness, log relative to wild type (ln ratio); higher = more splicing; Tetrahymena group I intron in knt gene, E. coli kanamycin selection, DiMSum; sequences stand for … in CUCUCU…GGAGGGAAAAGUUAUCAGGCAUGCACCUGGUAGCUAGUCUUUAAACCAAUAGAUUGCAUCGGUUUAAAAGGCAAGACCGUCAAAUUGCGGGAAAGGGGUCAACAGCCGUUCAGUACCAAGUCUCAGGGGAAACUUUGAGAUGGCCUUGCAAAGGGUAUGGUAAUAAGCUGACGGACAUGGUCCUAACCACGCAGCCAAGUCCUAAGUCAACAGAUCUUCUGUUGAUAUGGAUGCAGUUCACAGACUAAAUGUCGGUCGGGGAAGAUGUAUUCUUCUCAUAAGAUAUAGUCGGACCUCUCCUUAAUGGGAGCUAGCGGAUGAAGUGAUGCAACACUGGAGCCGCUGGGAACUAAUUUGUAUGCGAAAGUAUAUUGAUUAGUUUUGGAGUACUCGUGGUCG
# Summary of the method: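 Pooled colonies went to amplicon sequencing on an Illumina HiSeq 2500 after six replicate transformations. The plates were LB agar with 100 μg/mL carbenicillin, 50 μM IPTG and 0.2% rhamnose, with or without 25 μg/mL kanamycin, incubated overnight at 37°C or 30°C. The E. coli BL21(DE3) library had all eight P1ex-region intron nucleotides randomised, the intron placed in the knt kanamycin-resistance gene on pET-22b(+). DiMSum fitness is the error-weighted combination of replicate fold changes, kanamycin against none, normalised to wild type.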
Sequence,self-splicing fitness (ln) (30 °C),self-splicing fitness (ln) (37 °C)
CAUUAGCAAUAUUACGUCGC,-2.38 ± 0.32,–
CAUUAGCAAUAUUACGUGAU,-3.57 ± 0.12,-1.87 ± 0.1
CAUUAGCAAUAUUACGUGGG,-3.46 ± 0.17,-2.76 ± 0.21
CAUUAGCAAUAUUACGUUAG,-0.927 ± 0.092,-0.609 ± 0.1
CAUUAGCAAUAUUACGUUGG,-2.05 ± 0.085,-1.03 ± 0.1
CAUUAGCAAUAUUACGUUUC,-2.39 ± 0.33,-2.2 ± 0.32
CCAAAGCAAUAUUACGAAGG,-3.61 ± 0.15,-2.9 ± 0.3
CCAAAGCAAUAUUACGACAA,-2.42 ± 0.27,-2.54 ± 0.28
CCAAAGCAAUAUUACGACUC,-2.53 ± 0.27,-2.03 ± 0.43
CCAAAGCAAUAUUACGAGAA,-3.52 ± 0.44,-3 ± 0.35
CCAAAGCAAUAUUACGAGAC,-3.26 ± 0.24,-2.31 ± 0.23
CCAAAGCAAUAUUACGAUCU,-2.43 ± 0.14,-2.97 ± 0.35
CCAAAGCAAUAUUACGCAAU,-4.04 ± 0.24,-1.46 ± 0.18
CCAAAGCAAUAUUACGCAGU,-3.71 ± 0.21,-1.64 ± 0.16
CCAAAGCAAUAUUACGCCAU,-3.42 ± 0.17,-1.88 ± 0.17
CCAAAGCAAUAUUACGCUCU,-3.95 ± 0.27,-2.95 ± 0.23
CCAAAGCAAUAUUACGCUGC,-3.03 ± 0.17,-1.8 ± 0.18
CCAAAGCAAUAUUACGCUUA,-3.86 ± 0.24,-3.12 ± 0.22
CCAAAGCAAUAUUACGGACA,-2.84 ± 0.2,-2.86 ± 0.25
CCAAAGCAAUAUUACGGCCA,-2.38 ± 0.24,-2.76 ± 0.33
CCAAAGCAAUAUUACGGCGG,-3.8 ± 0.15,-2.48 ± 0.16
CCAAAGCAAUAUUACGGGCA,-3.47 ± 0.19,-2.86 ± 0.2
CCAAAGCAAUAUUACGGGUG,-1.01 ± 0.053,-0.233 ± 0.085
CCAAAGCAAUAUUACGGUAG,-1.99 ± 0.056,-0.962 ± 0.066

Sequence,self-splicing fitness (ln) (30 °C),self-splicing fitness (ln) (37 °C)
CCAAAGCAAUAUUACGGUUU,-3.21 ± 0.12,-2.34 ± 0.15
CCAAAGCAAUAUUACGUAUG,-0.512 ± 0.059,-0.574 ± 0.093
CCAAAGCAAUAUUACGUCGG,-3.29 ± 0.18,-2.23 ± 0.2
CCAAAGCAAUAUUACGUCUA,-3.06 ± 0.23,-2.06 ± 0.21
CCAAAGCAAUAUUACGUGCA,-2.81 ± 0.18,-2.9 ± 0.23
CCAAAGCAAUAUUACGUUCA,-2.59 ± 0.17,-3.38 ± 0.33
CCAAAGCAAUAUUACGUUGC,-3.4 ± 0.15,-2.12 ± 0.17
CCAAAGCAAUAUUACGUUUU,-3.91 ± 0.14,-2.75 ± 0.17
CCACAGCAAUAUUACGAACA,-2.78 ± 0.24,-2.33 ± 0.29
CCACAGCAAUAUUACGAAUA,-2.57 ± 0.15,-2.59 ± 0.19
CCACAGCAAUAUUACGAAUC,-2.71 ± 0.18,-2.3 ± 0.3
CCACAGCAAUAUUACGAAUU,-3.64 ± 0.18,-2.39 ± 0.17
CCACAGCAAUAUUACGACCG,-0.115 ± 0.064,-0.00245 ± 0.083
CCACAGCAAUAUUACGACUA,-3.08 ± 0.25,-2.88 ± 0.29
CCACAGCAAUAUUACGAUAU,-3.48 ± 0.2,-2.01 ± 0.15
CCACAGCAAUAUUACGCAAC,-2.45 ± 0.36,-1.79 ± 0.33
CCACAGCAAUAUUACGCAUG,-1.64 ± 0.073,-0.648 ± 0.067
CCACAGCAAUAUUACGCUGC,-3.06 ± 0.17,-2.72 ± 0.28
CCACAGCAAUAUUACGCUUU,-4.05 ± 0.25,-2.18 ± 0.19
CCACAGCAAUAUUACGGAUG,-1.97 ± 0.082,-1.19 ± 0.1
CCACAGCAAUAUUACGGAUU,-3.49 ± 0.11,-3.12 ± 0.15
CCACAGCAAUAUUACGGCAG,-1.16 ± 0.072,-0.579 ± 0.085
CCACAGCAAUAUUACGGCGU,-3.24 ± 0.21,-2.75 ± 0.31
